Laboratory results published in publication PMC4072690 (PLoS ONE, 2014).

B1: Ab53 mouse monoclonal antibody (IgG2a,κ) specific for FtGroEL (antibody, V domains shown)
VH: EVKLLESGGGLVQPGGSMKLSCVASGFTFSIFWMNWVRQSPEKGLEWVAEVRLKSNNYATHYAESVKGRFTISRDDSKSGVYLQMNNLRAEDTGIYYCTRGYYGSNYGEYWGQGTTLTVSS
VL: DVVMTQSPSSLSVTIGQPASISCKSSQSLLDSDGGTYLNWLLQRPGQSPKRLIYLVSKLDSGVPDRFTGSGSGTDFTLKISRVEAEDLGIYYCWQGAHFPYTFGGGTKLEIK
notes: also called Ab53 IgG
B2: Ab53 Fab (Fab, V domains shown)
VH: B1 VH
VL: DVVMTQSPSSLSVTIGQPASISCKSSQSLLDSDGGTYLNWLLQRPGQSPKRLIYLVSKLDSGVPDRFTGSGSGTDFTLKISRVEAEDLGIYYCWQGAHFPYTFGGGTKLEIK
notes: also called Fab fragment of Ab53; source: cleavage of purified Ab53 IgG with the Pierce Fab Preparation Kit
B3: Ab64 mouse monoclonal antibody (IgG2a,κ) specific for FtGroEL (antibody, V domains shown)
VH: EVQLLESGPELVRLGASVKVSCKASGYSFTDYNMYWVKQSHGKSLEWIGYIDPYNGDASYNQKFKGKATLTVDKSSSTAFMHLNSLTSEDSAVYYCARTGYYYGRSYAMDYWGQGTSVTVSS
VL: DIVMTQAAPSVPVTPGESVSISCRSSKSLLHSNGNTYLYWFLQRPGQSPQLLIYRMSNLASGVPDRFSGSGSGTAFTLRISKVEAEDVGVYYCMQHLEYPYTFGGGTKLDVK
notes: also called Ab64 IgG
B4: Ab64 Fab (Fab, V domains shown)
VH: B3 VH
VL: B3 VL
notes: also called Fab fragment of Ab64; source: cleavage of purified Ab64 IgG with the Pierce Fab Preparation Kit

Assays:
[1] = target: T1, GroEL of Francisella tularensis SchuS4, endogenous (Francisella tularensis subsp. …, UniProt Q5NEE1); assay: ELISA; details: one partner purified
T1 construct: source: endogenous, SchuS4 NP40 lysate

[2] = target: T2, Francisella tularensis SchuS4 recombinant GroEL with N-terminal His tag (Francisella tularensis subsp. …, UniProt Q5NEE1); assay: ELISA; details: one partner purified
T2 construct: source: E. coli BL21(DE3)pLysS, pET14b, IPTG induced, in BugBuster lysate; not shown: His6, N-terminal, kept

[3] = target: Francisella tularensis LVS recombinant GroEL with N-terminal His tag (Francisella tularensis subsp. …, UniProt P94798, strain); assay: ELISA; details: one partner purified
[4] = target: GroEL of Francisella tularensis LVS, endogenous (Francisella tularensis subsp. …, UniProt P94798, strain); assay: competition Western blot; details: one partner purified
[5] = target: T3, Escherichia coli GroEL, endogenous (Escherichia coli TG1 (K-12) and BL21, UniProt P0A6F5); assay: Western blot; details: one partner purified
T3 construct: also called EcGroEL

[6] = target: T4, purified FtGroEL used in the DXMS experiments (Francisella tularensis, strain not …, UniProt Q5NEE1); assay: HDX-MS; details: both partners purified
T4 construct: copies: 14

[7] = target: T3, Escherichia coli GroEL, endogenous; assay: ELISA; details: one partner purified
[8] = target: T2, Francisella tularensis SchuS4 …; assay: Western blot; details: one partner purified

| Binder | binding result [1] | binding result [2] | binding result [3] | binding result [4] | binding result [5] | binding result [6] | binding result [7] | binding result [8] |
| --- | --- | --- | --- | --- | --- | --- | --- | --- |
| B1 | binds | binds | binds | binds | binds | binds | – | – |
| B2 | – | – | – | – | – | binds | – | – |
| B3 | binds | – | binds | binds | – | binds | no binding | binds |
| B4 | – | – | – | – | – | binds | – | – |
